Measurements from patent US20200121712A1, “AGENT TO BE APPLIED TO OPHTHALMIC DEVICE” (SEIKAGAKU CORPORATION, priority 2015, published 2020).

Tested on: mucin
Test: Viscosity increasing effect by interaction with mucin (rotatory viscometer)
Type: physicochemical
Settings: for rate of increase in viscosity (increase in value of viscosity divided by viscosity of sample 3): 1.0 w/v % mixed with 20 w/v % mucin solution (final concentration 0.5 w/v %)
Protocol: In general, with respect to a film of a lubricant formed on a friction surface for reducing friction under the maintained state of fluid friction, the higher the viscosity of the lubricant, the higher the stability of the film of the lubricant. Therefore, the friction reducing effect of the cinnamic acid derivative was evaluated using, as an index, the increase in viscosity due to the interaction of the derivative with mucin contained in the tear fluid.
HA-3APC prepared in Example 1 was dissolved in PBS (pH 7.4) to thereby prepare solutions having concentrations of 1 w/v %, 0.5 w/v % and 0.25 w/v %.
Similarly, HA was dissolved in PBS (pH 7.4) to thereby prepare an HA solution having a concentration of 1 w/v %.
0.4 mL of each of these samples (1 w/v % HA-3APC, 0.5 w/v % HA-3APC, 0.25 w/v % HA-3APC and 1 w/v % HA) having added thereto 0.4 mL of 20 w/v % mucin was sample 1 for measurement.
A sample of 0.4 mL of 20 w/v % mucin having added thereto 0.4 mL of PBS was sample 2 for measurement.
A sample prepared in substantially the same manner as in sample 1 for measurement except that 0.4 mL of PBS was added in place of mucin was sample 3 for measurement.
Each sample for measurement was subjected, immediately after thorough mixing, to measurement of viscosity (shear rate: 100 S^−1, temperature: 35° C.) using a rotatory viscometer (ADVANCED RHEOMETER (TA Instruments)), and increase in value of viscosity was obtained by the following formula.
Increase in value of viscosity=μ1−μ2−μ3
μ1: Viscosity of sample 1 for measurement
μ2: Viscosity of sample 2 for measurement
μ3: Viscosity of sample 3 for measurement
Comparison of the strength of the interaction with mucin was carried out between HA and HA-3APC based on the standardized rate of increase in viscosity obtained by dividing the increase in value of viscosity with the viscosity of sample 3 for measurement. Such a means for standardization is frequently used in comparison of interactions with mucin among different test substances (for example, J. Ocul Pharmacol Ther. 2007.23(6): 541-50).

| Substance | rate of increase in viscosity (increase in value of viscosity divided by viscosity of sample 3) (shear rate 100 S^-1, 35° C.) | increase in value of viscosity (strength of interaction with mucin) (0.25, 0.5 and 1.0 w/v % mixed with 20 w/v % mucin (final 0.125, 0.25, 0.5 w/v %), shear rate 100 S^-1, 35° C.) | rate of increase in viscosity relative to that of HA (1.0 w/v % (final concentration 0.5 w/v %) with 20 w/v % mucin) |
| --- | --- | --- | --- |
| hyaluronic acid [HA, reference compound] | 2.49 | – | – |
| HA having covalently bonded thereto a cinnamic acid aminopropyl ester [HA-3APC] | 3.65 | increased depending on the concentration | about 1.5 times |
